The text below walks through data of patent publication US20180272008A1.

The target in this assay is IgE of patient serum 3 (human). In words: ELISA: serum IgE captured on an anti-human IgE coated plate, epitope 2 peptide (FITC-tagged) titrated, fluorescence (RFU).

Ends that are not written are not given here.

For orientation: EC50 (read off the curve) means the concentration needed to bring the measured effect to its halfway point. A higher EC50 (read off the curve) goes with weaker potency. Molecule ERDPYSPSQDPYSPS (also: FITC tag, site not given here) [FITC-tagged epitope 2 peptide of Ara h 2] displayed an EC50 (read off the curve) of 10 µM.
